In doi:10.1101/2025.10.29.685329 (bioRxiv, 2025):
Blank lines part the entries; values can stand above or below the binder they belong to. No end group written: not given here.

Legend:
GST-PGK1 = biological target: T1, GST-PGK1 (UniProt P00558 1-417); experiment: co-sedimentation
T1 sequence (looked up): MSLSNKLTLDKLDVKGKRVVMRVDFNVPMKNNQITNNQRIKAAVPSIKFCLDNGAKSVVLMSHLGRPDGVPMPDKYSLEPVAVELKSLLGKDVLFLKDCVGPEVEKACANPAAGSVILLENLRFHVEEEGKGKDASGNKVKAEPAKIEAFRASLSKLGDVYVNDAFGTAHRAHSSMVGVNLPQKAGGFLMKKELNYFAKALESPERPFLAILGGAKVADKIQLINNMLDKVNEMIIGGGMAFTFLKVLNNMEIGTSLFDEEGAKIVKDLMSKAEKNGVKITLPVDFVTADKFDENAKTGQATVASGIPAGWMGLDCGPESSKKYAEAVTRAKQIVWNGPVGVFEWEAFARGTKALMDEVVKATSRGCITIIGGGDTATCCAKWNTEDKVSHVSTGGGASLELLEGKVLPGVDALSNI

His-PGK1 = biological target: T2, His-PGK1 (UniProt P00558 1-417); experiment: pull-down
T2 sequence (looked up): T1 sequence (looked up)

- binding result (GST-PGK1): binds
Binder: HHHHHHSAFSNLFGGEPLSYTRFSL (not fully specified) [His-Tyr peptide (lipid-linked tyrosine-based motif)]

- binding result (His-PGK1): binds
B1: GST-TfR1-61 (TfR cyto), wild type (domain or fragment, UniProt P02786 1-61, looked up)
chain: MMDQARSAFSNLFGGEPLSYTRFSLARQVDGDNSHVEMKLAVDEEENADNNTKANVTKPKR
